Laboratory results reported in US20030215451A1 (Genentech, published 2003).

Tests used:
[1] = biological target: T1, Tie2 receptor (full length receptor construct) (UniProt Q02763 23-1124, limits assumed); assay: co-immunoprecipitation from co-transfected 293 cells: anti-Tie2 IP, anti-gD immunoblot
T1 construct: whole, on cells; Full length receptor expressed in 293 cells and assayed from RIPA lysate, not on intact cells

integrin αvβ3 = integrin αvβ3 (UniProt P06756 31-1048; P05106 27-788); assay: cell-based or functional assay
Sequence of integrin αvβ3 (P06756 31-1048, chain 1 of 2): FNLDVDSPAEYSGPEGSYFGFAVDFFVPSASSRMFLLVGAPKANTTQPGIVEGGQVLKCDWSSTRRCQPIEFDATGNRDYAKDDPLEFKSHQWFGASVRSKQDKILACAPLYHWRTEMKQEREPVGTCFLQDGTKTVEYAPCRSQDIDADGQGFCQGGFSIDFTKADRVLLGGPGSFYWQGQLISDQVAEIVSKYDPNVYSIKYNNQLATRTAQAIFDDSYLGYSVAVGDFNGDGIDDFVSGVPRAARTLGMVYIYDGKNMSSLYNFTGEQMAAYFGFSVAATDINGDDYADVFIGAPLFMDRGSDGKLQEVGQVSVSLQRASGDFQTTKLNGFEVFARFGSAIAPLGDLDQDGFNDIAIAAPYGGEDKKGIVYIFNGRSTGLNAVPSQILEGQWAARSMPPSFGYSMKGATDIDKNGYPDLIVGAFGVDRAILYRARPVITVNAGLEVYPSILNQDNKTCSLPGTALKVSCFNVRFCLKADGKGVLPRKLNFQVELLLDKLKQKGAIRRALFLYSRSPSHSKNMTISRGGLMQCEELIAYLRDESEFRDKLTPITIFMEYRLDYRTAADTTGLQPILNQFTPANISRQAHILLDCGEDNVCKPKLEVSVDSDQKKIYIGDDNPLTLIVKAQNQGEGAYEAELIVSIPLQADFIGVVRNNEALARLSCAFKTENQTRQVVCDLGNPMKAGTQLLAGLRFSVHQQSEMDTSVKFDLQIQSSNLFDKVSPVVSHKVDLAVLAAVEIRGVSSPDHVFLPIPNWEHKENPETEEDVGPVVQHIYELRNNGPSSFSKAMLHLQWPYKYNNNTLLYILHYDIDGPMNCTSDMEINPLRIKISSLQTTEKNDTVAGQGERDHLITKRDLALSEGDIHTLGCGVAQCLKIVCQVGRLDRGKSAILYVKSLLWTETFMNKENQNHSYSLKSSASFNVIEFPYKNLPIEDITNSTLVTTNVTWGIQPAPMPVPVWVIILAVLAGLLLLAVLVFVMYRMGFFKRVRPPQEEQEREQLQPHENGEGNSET
Sequence of integrin αvβ3 (P05106 27-788, chain 2 of 2): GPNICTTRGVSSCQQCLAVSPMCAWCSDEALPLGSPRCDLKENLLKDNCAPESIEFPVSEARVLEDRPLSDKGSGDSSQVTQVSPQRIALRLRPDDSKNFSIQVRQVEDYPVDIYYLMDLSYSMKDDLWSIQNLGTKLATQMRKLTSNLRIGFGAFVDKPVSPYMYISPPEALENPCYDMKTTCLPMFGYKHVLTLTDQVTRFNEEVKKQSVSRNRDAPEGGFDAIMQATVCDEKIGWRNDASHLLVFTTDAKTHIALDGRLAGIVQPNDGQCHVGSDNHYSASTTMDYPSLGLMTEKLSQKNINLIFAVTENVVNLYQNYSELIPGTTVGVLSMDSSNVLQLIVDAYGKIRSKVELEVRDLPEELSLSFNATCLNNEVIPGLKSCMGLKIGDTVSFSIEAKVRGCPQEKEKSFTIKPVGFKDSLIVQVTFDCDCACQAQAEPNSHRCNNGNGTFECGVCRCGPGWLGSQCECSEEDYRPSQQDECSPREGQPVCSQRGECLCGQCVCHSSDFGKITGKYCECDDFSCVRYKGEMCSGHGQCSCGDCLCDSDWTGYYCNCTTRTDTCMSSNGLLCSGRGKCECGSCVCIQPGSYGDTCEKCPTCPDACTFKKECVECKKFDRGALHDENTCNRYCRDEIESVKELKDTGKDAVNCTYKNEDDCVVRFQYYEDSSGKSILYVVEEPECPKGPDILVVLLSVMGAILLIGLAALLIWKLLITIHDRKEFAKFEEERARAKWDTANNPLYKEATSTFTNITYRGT

[2] = biological target: T2, Tie1 receptor (full length receptor construct) (UniProt P35590 22-1138, limits assumed); assay: co-immunoprecipitation from co-transfected 293 cells: anti-Tie1 IP, anti-gD immunoblot
T2 construct: whole, on cells; Full length receptor expressed in 293 cells and assayed from RIPA lysate, not on intact cells
T2 sequence (P35590 22-1138 limits assumed): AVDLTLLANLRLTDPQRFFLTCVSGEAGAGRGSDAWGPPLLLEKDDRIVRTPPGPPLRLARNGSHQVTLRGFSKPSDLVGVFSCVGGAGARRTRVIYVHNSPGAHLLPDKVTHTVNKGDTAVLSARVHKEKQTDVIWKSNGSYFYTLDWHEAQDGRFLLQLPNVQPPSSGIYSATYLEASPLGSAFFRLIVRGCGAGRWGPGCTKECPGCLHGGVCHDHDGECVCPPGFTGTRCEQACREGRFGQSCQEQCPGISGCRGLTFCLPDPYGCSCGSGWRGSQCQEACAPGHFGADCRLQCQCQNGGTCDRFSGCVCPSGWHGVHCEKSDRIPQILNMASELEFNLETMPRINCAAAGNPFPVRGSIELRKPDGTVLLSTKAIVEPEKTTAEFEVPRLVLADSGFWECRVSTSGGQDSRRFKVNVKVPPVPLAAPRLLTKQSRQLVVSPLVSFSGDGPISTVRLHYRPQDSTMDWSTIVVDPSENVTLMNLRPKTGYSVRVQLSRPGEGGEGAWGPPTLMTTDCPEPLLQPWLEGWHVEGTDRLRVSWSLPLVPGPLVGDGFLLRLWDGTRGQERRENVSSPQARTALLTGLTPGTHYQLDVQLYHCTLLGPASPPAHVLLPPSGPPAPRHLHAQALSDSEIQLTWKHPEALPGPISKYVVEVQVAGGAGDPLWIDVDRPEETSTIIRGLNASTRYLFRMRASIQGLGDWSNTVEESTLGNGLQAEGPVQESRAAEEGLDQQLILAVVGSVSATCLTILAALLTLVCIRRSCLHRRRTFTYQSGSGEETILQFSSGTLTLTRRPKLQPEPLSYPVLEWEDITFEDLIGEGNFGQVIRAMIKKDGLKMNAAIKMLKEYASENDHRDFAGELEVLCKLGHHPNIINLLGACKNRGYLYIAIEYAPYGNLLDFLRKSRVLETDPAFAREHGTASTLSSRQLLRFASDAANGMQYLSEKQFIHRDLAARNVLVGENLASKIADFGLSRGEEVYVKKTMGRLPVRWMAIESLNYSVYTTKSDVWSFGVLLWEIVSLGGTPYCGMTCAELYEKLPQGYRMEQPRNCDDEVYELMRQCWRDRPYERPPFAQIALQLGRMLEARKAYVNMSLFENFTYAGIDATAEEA

T1 sequence (Q02763 23-1124 limits assumed): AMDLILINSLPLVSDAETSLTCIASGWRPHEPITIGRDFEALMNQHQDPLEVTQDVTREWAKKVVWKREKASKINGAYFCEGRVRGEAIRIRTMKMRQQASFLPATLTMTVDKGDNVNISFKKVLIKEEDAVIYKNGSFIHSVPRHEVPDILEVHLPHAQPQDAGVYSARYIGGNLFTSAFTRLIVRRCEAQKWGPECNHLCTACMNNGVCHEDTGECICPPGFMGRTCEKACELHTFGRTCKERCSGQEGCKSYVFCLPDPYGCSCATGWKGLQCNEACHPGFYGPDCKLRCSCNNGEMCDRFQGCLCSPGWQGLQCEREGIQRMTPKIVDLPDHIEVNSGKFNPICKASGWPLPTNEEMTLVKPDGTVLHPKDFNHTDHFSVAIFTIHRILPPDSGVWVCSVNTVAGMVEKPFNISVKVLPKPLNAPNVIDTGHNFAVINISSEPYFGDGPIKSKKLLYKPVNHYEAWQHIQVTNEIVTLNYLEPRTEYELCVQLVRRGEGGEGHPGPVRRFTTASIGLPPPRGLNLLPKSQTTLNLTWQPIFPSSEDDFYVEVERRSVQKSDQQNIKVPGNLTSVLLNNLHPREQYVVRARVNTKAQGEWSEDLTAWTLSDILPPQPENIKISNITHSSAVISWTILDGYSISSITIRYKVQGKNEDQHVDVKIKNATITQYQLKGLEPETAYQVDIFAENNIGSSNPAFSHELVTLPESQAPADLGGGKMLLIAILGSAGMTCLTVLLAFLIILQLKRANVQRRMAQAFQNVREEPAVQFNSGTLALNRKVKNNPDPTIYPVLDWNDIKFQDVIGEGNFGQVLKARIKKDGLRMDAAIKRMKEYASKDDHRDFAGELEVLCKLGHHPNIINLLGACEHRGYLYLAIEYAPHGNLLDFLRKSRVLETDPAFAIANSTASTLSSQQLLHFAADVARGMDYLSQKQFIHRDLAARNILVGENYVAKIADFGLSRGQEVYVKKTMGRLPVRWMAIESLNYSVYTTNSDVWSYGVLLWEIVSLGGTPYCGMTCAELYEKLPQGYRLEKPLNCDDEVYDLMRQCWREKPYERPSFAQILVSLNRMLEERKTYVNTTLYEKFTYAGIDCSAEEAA

B1: recombinant human Angptl3 tagged with an amino-terminal gD epitope (ligand, not shown: small tags and cut ends)
chain: SRIDQDNSSFDSLSPEPKSRFAMLDDVKILANGLLQLGHGLKDFVHKTKGQINDIFQKLNIFDQSFYDLSLQTSEIKEEEKELRRTTYKLQVKNEEVKNMSLELNSKLESLLEEKILLQQKVKYLEEQLTNLIQNQPETPEHPEVTSLKTFVEKQDNSIKDLLQTVEDQYKQLNQQHSQIKEIENQLRRTSIQEPTEISLSSKPRAPRTTPFLQLNEIRNVKHDGIPAECTTIYNRGEHTSGMYAIRPSNSQVFHVYCDVISGSPWTLIQHRIDGSQNFNETWENYKYGFGRLDGEFWLGLEKIYSIVKQSNYVLRIELEDWKDNKHYIEYSFYLGNHETNYTLHLVAITGNVPNAIPENKDLVFSTWDHKAKGHFNCPEGYSGGWWWHDECGENNLNGKYNKPRAKSKPERRRGLSWKSQNGRLYSIKSTKMLIHPTDSESFE
modifications: glycosylated (PNGase-F sensitive)
notes: Purified from baculovirus-infected insect cells for the adhesion and migration assays; Expressed in transiently transfected 293 cells for the co-immunoprecipitation; Both are treated here as one molecule; also called hAngptl3; gD-tagged Angptl3
- binding result [1]: no binding
- migration of HMVEC (cells/microscopic field) (integrin αvβ3): 2.5 fold
- binding result [2]: no binding
